Measurements: article PMC10221034 (2023)

Biological target: wild-type rTpiA (recombinant Streptococcus pneumoniae D39 triosephosphate isomerase) (Streptococcus pneumoniae D39) (UniProt Q04JH4)
Experiment: SPR; Biacore X100; rTpiA immobilised on CM5 chip by amine coupling; plasminogen 6.25-100 nM injected, contact time 120 s, 20 µL/min; running buffer 100 mM HEPES pH 7.4, 150 mM NaCl, 3 mM EDTA, 0.005% surfactant P20; apparent constants

wild-type rTpiA (recombinant Streptococcus pneumoniae D39 triosephosphate isomerase) (Streptococcus pneumoniae D39), sequence (Q04JH4 2-252): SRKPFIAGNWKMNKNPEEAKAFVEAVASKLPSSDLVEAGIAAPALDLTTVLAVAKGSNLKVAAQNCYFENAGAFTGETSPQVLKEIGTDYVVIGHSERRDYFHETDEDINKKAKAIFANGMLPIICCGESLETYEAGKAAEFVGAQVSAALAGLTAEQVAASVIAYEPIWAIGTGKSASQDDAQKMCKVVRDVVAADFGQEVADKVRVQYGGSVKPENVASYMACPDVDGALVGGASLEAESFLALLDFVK

Substance “human plasma plasminogen (natural protein)” has a Kd of 865 nM, a koff of 0.00375 s⁻¹ and a kon of 4340 M⁻¹ s⁻¹.
